Measured values published in publication PMC11479587, “Early steps of protein disaggregation by Hsp70 chaperone and class B J-domain proteins are shaped by Hsp110” (eLife, 2024).

T1: His6-SUMO-Sse1 (yeast (S. cerevisiae), UniProt P32589 1-693)
T1 construct: Sse1, yeast Hsp110 nucleotide exchange factor, Uniprot ID P32589; Held on the Ni-NTA BLI sensor through the His6-SUMO tag; also called His-Sse1; His-See1; source: recombinant, purified as Sse1 with the proteolytic cleavage of the tag omitted
T1 sequence (looked up): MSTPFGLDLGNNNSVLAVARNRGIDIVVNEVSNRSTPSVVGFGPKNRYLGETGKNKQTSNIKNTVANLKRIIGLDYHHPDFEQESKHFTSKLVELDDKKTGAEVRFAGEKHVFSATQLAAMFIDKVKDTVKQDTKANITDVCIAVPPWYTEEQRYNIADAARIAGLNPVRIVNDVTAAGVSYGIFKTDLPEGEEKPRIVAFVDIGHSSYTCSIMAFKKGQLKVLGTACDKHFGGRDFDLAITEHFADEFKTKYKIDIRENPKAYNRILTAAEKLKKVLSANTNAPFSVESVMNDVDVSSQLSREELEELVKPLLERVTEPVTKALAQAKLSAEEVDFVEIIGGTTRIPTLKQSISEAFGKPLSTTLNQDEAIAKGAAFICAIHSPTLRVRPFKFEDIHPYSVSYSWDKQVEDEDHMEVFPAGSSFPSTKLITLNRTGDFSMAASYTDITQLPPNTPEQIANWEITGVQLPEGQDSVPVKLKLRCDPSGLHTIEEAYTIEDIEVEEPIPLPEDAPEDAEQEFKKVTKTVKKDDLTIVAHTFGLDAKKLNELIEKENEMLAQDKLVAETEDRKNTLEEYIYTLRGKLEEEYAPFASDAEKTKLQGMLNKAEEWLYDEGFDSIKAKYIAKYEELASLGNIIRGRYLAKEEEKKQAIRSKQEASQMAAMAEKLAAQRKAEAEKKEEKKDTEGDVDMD

B1: Ssa1 (natural protein)
chain: not shown
notes: Ssa1, yeast Hsp70 chaperone, Uniprot ID P10591; also called Hsp70; yeast Hsp70; source: recombinant, expressed from pCA533-His6-SUMO-SSA1, purified using published protocols (Andréasson et al., 2008a)
B2: Sis1 immobilised through the His6-SUMO tag (natural protein, yeast (S. cerevisiae), UniProt P25294 1-352, looked up)
chain: MVKETKLYDLLGVSPSANEQELKKGYRKAALKYHPDKPTGDTEKFKEISEAFEILNDPQKREIYDQYGLEAARSGGPSFGPGGPGGAGGAGGFPGGAGGFSGGHAFSNEDAFNIFSQFFGGSSPFGGADDSGFSFSSYPSGGGAGMGGMPGGMGGMHGGMGGMPGGFRSASSSPTYPEEETVQVNLPVSLEDLFVGKKKSFKIGRKGPHGASEKTQIDIQLKPGWKAGTKITYKNQGDYNPQTGRRKTLQFVIQEKSHPNFKRDGDDLIYTLPLSFKESLLGFSKTIQTIDGRTLPLSRVQPVQPSQTSTYPGQGMPTPKNPSQRGNLIVKYKVDYPISLNDAQKRAIDENF
notes: Sis1, yeast class B J-domain protein, Uniprot ID P25294; also called His-Sis1; class B JDP
B3: Sse1 (natural protein, yeast (S. cerevisiae), UniProt P32589 1-693, looked up)
chain: T1 sequence (looked up)

What was measured:
His6-SUMO-Sse1 = biological target: T1, His6-SUMO-Sse1; test: BLI; His-Sse1 (2.5 µM) or His-Sse1-2 (1 µM) on the Ni-NTA sensor through the His6-SUMO tag; Ssa1 at 32-16,000 nM; level of binding fitted with a one site-specific binding model; buffer A with 5 mM ATP and 2 mM DTT; conditions: both partners purified
Sse1 = biological target: B3; test: BLI; His-Sis1 (0.4 µM, to saturation) on the Ni-NTA sensor through the His6-SUMO tag; 1 µM Ssa1 with increasing concentrations of Sse1 or Sse1-2; buffer A with 5 mM ATP and 2 mM DTT; conditions: both partners purified
Ssa1 [1] = biological target: B1; test: as above; conditions: both partners purified
Ssa1 [2] = biological target: B1; test: cell-based or functional assay

Sequence of Ssa1 (P10591 whole entry): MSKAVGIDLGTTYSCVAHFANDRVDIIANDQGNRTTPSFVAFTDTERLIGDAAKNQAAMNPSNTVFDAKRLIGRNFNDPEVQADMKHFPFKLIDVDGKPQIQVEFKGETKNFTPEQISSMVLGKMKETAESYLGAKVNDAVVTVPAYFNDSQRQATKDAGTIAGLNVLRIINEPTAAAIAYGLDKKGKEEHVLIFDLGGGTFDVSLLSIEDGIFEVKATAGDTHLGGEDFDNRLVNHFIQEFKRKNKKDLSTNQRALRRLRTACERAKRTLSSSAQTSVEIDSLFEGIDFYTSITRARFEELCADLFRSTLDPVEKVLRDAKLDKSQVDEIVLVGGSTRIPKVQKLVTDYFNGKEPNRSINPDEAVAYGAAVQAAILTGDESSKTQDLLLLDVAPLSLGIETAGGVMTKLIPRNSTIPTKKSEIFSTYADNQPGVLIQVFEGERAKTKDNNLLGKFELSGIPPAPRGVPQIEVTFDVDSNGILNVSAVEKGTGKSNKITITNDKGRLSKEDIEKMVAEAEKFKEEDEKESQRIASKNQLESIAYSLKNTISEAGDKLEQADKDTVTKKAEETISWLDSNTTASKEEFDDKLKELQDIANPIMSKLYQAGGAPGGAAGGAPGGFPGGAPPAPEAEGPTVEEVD

Binder: B1
binding result (His6-SUMO-Sse1): binds | binding result (Sse1): binds

Binder: B2
binding result (Ssa1 [1]): binds

Binder: B3
inhibition of the refolding of aggregated luciferase by Ssa1-Ydj1 (1 µM each), titration of Sse1, activity after 1 hr (Ssa1 [2]): 0.1 µM
